Our source for the EC50 values is patent US20100260668A1 (published 2010).

To fix the notation:
B1: DVD521 (bispecific antibody, IgG1)
VH: EVQLQQSGPELEKPGASVKISCKASGYSFTGYNMNWVKQSNGKSLEWIGNIDPYFGGTNYNQKFKGKATLTVDKSSSTAYMQLKSLTSEDSAVYYCARNYDYDGGCFDYWGQGTTLTVSSASTKGPSVFPLAPEVQLVESGGGLVQPGGSLRLSCAASGFTINASWIHWVRQAPGKGLEWVGAIYPYSGYTNYADSVKGRFTISADTSKNTAYLQMNSLRAEDTAVYYCARWGHSTSPWAMDYWGQGTLVTVSS
VL: QAVVTQESALTTSPGETVTLTCRSSTGAVTTSNYANWVQEKPDHLFTGLIGGTNNRAPGVPARFSGSLIGDKAALTITGAQTEDEAIYFCALWYSNHWVFGGGTKLTVLGQPKAAPSVTLFPPDIQMTQSPSSLSASVGDRVTITCRASQVIRRSLAWYQQKPGKAPKLLIYAASNLASGVPSRFSGSGSGTDFTLTISSLQPEDFATYYCQQSNTSPLTFGQGTKVEIKR
notes: DVD-Ig, outer AB073 / inner AB071; HC linker long, LC linker long; also called DVD521H; DVD521L
B2: DVD522 (bispecific antibody, IgG1)
VH: EVQLVESGGGLVQPGGSLRLSCAASGFTINASWIHWVRQAPGKGLEWVGAIYPYSGYTNYADSVKGRFTISADTSKNTAYLQMNSLRAEDTAVYYCARWGHSTSPWAMDYWGQGTLVTVSSASTKGPSVFPLAPEVQLQQSGPELEKPGASVKISCKASGYSFTGYNMNWVKQSNGKSLEWIGNIDPYFGGTNYNQKFKGKATLTVDKSSSTAYMQLKSLTSEDSAVYYCARNYDYDGGCFDYWGQGTTLTVSS
VL: DIQMTQSPSSLSASVGDRVTITCRASQVIRRSLAWYQQKPGKAPKLLIYAASNLASGVPSRFSGSGSGTDFTLTISSLQPEDFATYYCQQSNTSPLTFGQGTKVEIKRTVAAPSVFIFPPQAVVTQESALTTSPGETVTLTCRSSTGAVTTSNYANWVQEKPDHLFTGLIGGTNNRAPGVPARFSGSLIGDKAALTITGAQTEDEAIYFCALWYSNHWVFGGGTKLTVLG
notes: DVD-Ig, outer AB071 / inner AB073; HC linker long, LC linker long; also called DVD522H; DVD522L
B3: DVD515 (bispecific antibody, IgG1)
VH: EVQLQQSGPELEKPGASVKISCKASGYSFTGYNMNWVKQSNGKSLEWIGNIDPYFGGTNYNQKFKGKATLTVDKSSSTAYMQLKSLTSEDSAVYYCARNYDYDGGCFDYWGQGTTLTVSSASTKGPEVQLVESGGGLVQPGGSLRLSCAASGFTINASWIHWVRQAPGKGLEWVGAIYPYSGYTNYADSVKGRFTISADTSKNTAYLQMNSLRAEDTAVYYCARWGHSTSPWAMDYWGQGTLVTVSS
VL: QAVVTQESALTTSPGETVTLTCRSSTGAVTTSNYANWVQEKPDHLFTGLIGGTNNRAPGVPARFSGSLIGDKAALTITGAQTEDEAIYFCALWYSNHWVFGGGTKLTVLGQPKAAPDIQMTQSPSSLSASVGDRVTITCRASQVIRRSLAWYQQKPGKAPKLLIYAASNLASGVPSRFSGSGSGTDFTLTISSLQPEDFATYYCQQSNTSPLTFGQGTKVEIKR
notes: DVD-Ig, outer AB073 / inner AB071; HC linker short, LC linker short; also called DVD515H; DVD515L
B4: DVD527 (bispecific antibody, IgG1)
VH: B1 VH
VL: B3 VL
notes: DVD-Ig, outer AB073 / inner AB071; HC linker long, LC linker short; also called DVD527H; DVD527L
B5: DVD516 (bispecific antibody, IgG1)
VH: EVQLVESGGGLVQPGGSLRLSCAASGFTINASWIHWVRQAPGKGLEWVGAIYPYSGYTNYADSVKGRFTISADTSKNTAYLQMNSLRAEDTAVYYCARWGHSTSPWAMDYWGQGTLVTVSSASTKGPEVQLQQSGPELEKPGASVKISCKASGYSFTGYNMNWVKQSNGKSLEWIGNIDPYFGGTNYNQKFKGKATLTVDKSSSTAYMQLKSLTSEDSAVYYCARNYDYDGGCFDYWGQGTTLTVSS
VL: DIQMTQSPSSLSASVGDRVTITCRASQVIRRSLAWYQQKPGKAPKLLIYAASNLASGVPSRFSGSGSGTDFTLTISSLQPEDFATYYCQQSNTSPLTFGQGTKVEIKRTVAAPQAVVTQESALTTSPGETVTLTCRSSTGAVTTSNYANWVQEKPDHLFTGLIGGTNNRAPGVPARFSGSLIGDKAALTITGAQTEDEAIYFCALWYSNHWVFGGGTKLTVLG
notes: DVD-Ig, outer AB071 / inner AB073; HC linker short, LC linker short; also called DVD516H; DVD516L
B6: DVD534 (bispecific antibody, IgG1)
VH: B5 VH
VL: B2 VL
notes: DVD-Ig, outer AB071 / inner AB073; HC linker short, LC linker long; also called DVD534H; DVD534L
B7: DVD528 (bispecific antibody, IgG1)
VH: B2 VH
VL: B5 VL
notes: DVD-Ig, outer AB071 / inner AB073; HC linker long, LC linker short; also called DVD528H; DVD528L
B8: DVD642 (bispecific antibody, human IgG1, kappa)
heavy: not shown
light: DIQMTQSPSSLSASVGDRVTITCSASQDISNYLNWYQQKPGKAPKVLIYFTSSLHSGVPSRFSGSGSGTDFTLTISSLQPEDFATYYCQQYSTVPWTFGQGTKVEIKRTVAAPSVFIFPPDIQMTQSPSSVSASVGDRVTITCRASQGISSWLAWYQQKPGKAPNLLIYEASSLQSGVPSRFGGSGSGTDFTLTISSLQPEDFATYYCQQANGFPWTFGQGTKVEIKRTVAAPSVFIFPPSDEQLKSGTASVVCLLNNFYPREAKVQWKVDNALQSGNSQESVTEQDSKDSTYSLSSTLTLSKADYEKHKVYACEVTHQGLSSPVTKSFNRGEC
notes: DVD-Ig; HC linker long, LC linker long; vectors V1/V2
B9: DVD644 (bispecific antibody, human IgG1, kappa)
heavy: not shown
light: DIQMTQSPSSLSASVGDRVTITCRASQDVSTAVAWYQQKPGKAPKLLIYSASFLYSGVPSRFSGSGSGTDFTLTISSLQPEDFATYYCQQSYTTPPTFGQGTKVEIKRTVAAPSVFIFPPDIQMTQSPSSVSASVGDRVTITCRASQGISSWLAWYQQKPGKAPNLLIYEASSLQSGVPSRFGGSGSGTDFTLTISSLQPEDFATYYCQQANGFPWTFGQGTKVEIKRTVAAPSVFIFPPSDEQLKSGTASVVCLLNNFYPREAKVQWKVDNALQSGNSQESVTEQDSKDSTYSLSSTLTLSKADYEKHKVYACEVTHQGLSSPVTKSFNRGEC
notes: as for B8

The target in the first assay is VEGF (VEGF 1-165 aa, R&D Systems 293-VE-010) (UniProt P15692 27-191). The assay is described as follows: Direct bind ELISA, VEGF coated on plate.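 Further: ELISA screening of antibodies for binding to the plate-coated target antigen.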
VEGF (VEGF 1-165 aa, R&D Systems 293-VE-010), sequence (P15692 other isoform, or with tags, fused parts or gaps limits assumed): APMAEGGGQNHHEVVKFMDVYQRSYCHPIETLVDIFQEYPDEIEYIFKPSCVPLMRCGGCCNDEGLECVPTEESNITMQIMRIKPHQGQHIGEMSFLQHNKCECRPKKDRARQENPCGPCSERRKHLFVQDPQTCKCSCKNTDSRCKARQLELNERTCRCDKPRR
On to B1, for which the EC50 – broadly, the concentration needed to bring the measured effect to its halfway point – is 655 nM.
In turn, B2 had an EC50 of 23.5 nM.
On the same count and under the same terms, with B3 the figure was 3020 nM; with B4, 2380 nM.
The same measure, in the same setting: with B5 the figure was 24.6 nM; with B6, 23.6 nM; with B7, 27.7 nM.

In another assay the target is T1, HGF-His tag (UniProt P14210 32-728).
T1 construct: Bought antigen coated on the ELISA plate; not shown: His tag
T1 sequence (P14210 32-728 limits assumed): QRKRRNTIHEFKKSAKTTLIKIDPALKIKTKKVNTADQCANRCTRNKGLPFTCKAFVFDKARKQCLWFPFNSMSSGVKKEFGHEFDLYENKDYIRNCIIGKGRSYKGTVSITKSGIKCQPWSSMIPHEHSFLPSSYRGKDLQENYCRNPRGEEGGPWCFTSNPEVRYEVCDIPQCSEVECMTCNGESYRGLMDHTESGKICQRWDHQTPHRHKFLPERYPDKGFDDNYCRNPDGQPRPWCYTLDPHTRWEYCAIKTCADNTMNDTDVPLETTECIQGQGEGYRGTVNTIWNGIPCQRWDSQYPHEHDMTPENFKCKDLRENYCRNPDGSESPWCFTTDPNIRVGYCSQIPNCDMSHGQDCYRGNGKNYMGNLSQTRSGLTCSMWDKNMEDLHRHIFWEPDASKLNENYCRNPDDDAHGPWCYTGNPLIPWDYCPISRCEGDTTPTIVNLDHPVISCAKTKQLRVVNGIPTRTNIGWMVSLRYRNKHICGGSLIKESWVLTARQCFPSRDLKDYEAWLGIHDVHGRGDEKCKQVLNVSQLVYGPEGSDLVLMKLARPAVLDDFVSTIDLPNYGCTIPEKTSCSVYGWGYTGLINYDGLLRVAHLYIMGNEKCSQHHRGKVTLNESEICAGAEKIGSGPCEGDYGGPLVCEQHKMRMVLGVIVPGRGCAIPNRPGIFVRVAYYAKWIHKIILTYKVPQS
The assay is described as follows: direct bind ELISA (C-term VD).
B8 registered an EC50 of 0.87 nM.
Still for that read-out and setting: with B9 the figure was 0.29 nM.

The next assay deals with T2, VEGF 1-165 aa (UniProt P15692 27-191).
T2 construct: Bought antigen coated on the ELISA plate
T2 sequence (P15692 other isoform, or with tags, fused parts or gaps limits assumed): as the sequence (P15692 other isoform, or with tags, fused parts or gaps limits assumed) above
Briefly: direct bind ELISA (N-term VD).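 Further: ELISA screen of antibodies for binding to plate-immobilized target antigen.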 In general terms: ELISA stands for enzyme-linked immunosorbent assay.
The molecule B8 showed an EC50 of 6.35 nM.
B9 gave an EC50 of 5.31 nM.
